Test results reported in patent US20230227559A1.

Molecular target: His-tagged ectodomains of hFcγRIIIA variant V158 (human) (UniProt P08637)
Assay: SPR (ProteON), His-tagged hFcγRIIIA V158 ectodomains on chip, mAb injected

His-tagged ectodomains of hFcγRIIIA variant V158 (human), sequence (P08637 other isoform, or with tags, fused parts or gaps mutant): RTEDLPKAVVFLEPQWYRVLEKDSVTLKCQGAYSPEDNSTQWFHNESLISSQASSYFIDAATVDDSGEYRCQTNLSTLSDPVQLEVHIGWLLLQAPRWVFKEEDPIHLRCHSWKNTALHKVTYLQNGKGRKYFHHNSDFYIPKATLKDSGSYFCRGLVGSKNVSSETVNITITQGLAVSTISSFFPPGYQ

Row | Substance | Kd [nM] | koff [s⁻¹] | kon [M⁻¹ s⁻¹]
1 | Chimeric 3G8 hIgG1 (antibody) | 2.1 | 0.00021 | 300000
2 | Chimeric 3G8 hIgG1 N297A format (antibody) | 2.88 | 0.0003 | 110000
